Read-outs that look alike come from different tables or passages of the source. Where no end group is shown, it is not given here. [ ]: non-standard residue; d: D form. The star is where a group is joined. Octanoyl = CCCCCCCC(=O)*; Dap = NC[C@H](N)C(=O)O
Assays:
human GHS receptor 1a [1] = target: T1, human GHS receptor 1a (human, UniProt Q92847 1-366); experiment: cell-based or functional assay
human GHS receptor 1a [2] = target: T1, human GHS receptor 1a; experiment: competitive filter binding vs [35S]-MK-677, membranes of HEK 293-AEQ17 cells transfected with human GHS receptor
Method: (§1) Binding of [³⁵S]-MK-677 to crude membranes prepared from HEK 293-aequorin stable cell lines was performed as described in Chen et al., Bioorg. Med. Chem. Lett. 1996, 6, 2163-2169, and Howard et al., Science 1996, 273, 974-977. Prior to the binding assay, the HEK 293-AEQ17 cells (8×10⁵ cells plated 18 hours before transfection in a T75 flask) were transfected with 22 μg of human GHS receptor plasmid using 264 μg lipofectamine.

human GHS receptor 1a [3] = target: T1, human GHS receptor 1a; experiment: cell-based or functional assay; remark: listed apart in the source
human GHS receptor 1a [4] = target: T1, human GHS receptor 1a; experiment: competitive filter binding vs [35S]-MK-677, membranes of HEK 293-AEQ17 cells transfected with human GHS receptor; remark: listed apart in the source
Method: as §1

T1 sequence (Q92847 whole entry): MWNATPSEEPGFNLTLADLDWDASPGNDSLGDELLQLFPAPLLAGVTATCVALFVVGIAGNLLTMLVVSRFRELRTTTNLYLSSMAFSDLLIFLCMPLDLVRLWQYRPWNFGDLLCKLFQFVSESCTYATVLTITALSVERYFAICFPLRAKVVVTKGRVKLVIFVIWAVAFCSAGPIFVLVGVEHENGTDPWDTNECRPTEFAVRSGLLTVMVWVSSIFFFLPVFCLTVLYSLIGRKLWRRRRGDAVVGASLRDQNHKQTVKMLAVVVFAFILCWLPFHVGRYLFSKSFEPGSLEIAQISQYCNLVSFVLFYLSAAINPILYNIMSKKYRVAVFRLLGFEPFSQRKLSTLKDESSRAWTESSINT

B1: compound 12 (peptide)
peptide: GSXFLSPEHQRVQQRKESKKPPAKLQPR
modifications: X^b at position 3: 2,3-di-amino-propionic acid in place of Ser3, its beta-amino group acylated with n-octanoic acid
Human GHS receptor 1a [1]
  Functional Assay EC50 (aequorin bioluminescence): 31 nM
Human GHS receptor 1a [2]
  IC50: 0.42 nM

## GSS(Octanoyl)FLSPEHQRVQQ [compound 13]
Human GHS receptor 1a [3]
  % activation at 10 µM relative to ghrelin: 97%
  Functional Assay EC50 (aequorin bioluminescence): 17 nM
Human GHS receptor 1a [1]
  % activation at 10 µM relative to ghrelin: 97%
  Functional Assay EC50 (aequorin bioluminescence): 17 nM
Human GHS receptor 1a [2]
  IC50: 9.6 nM
Human GHS receptor 1a [4]
  IC50: 9.6 nM

## GS[Dap](Octanoyl)FLSPEHQRVQQ [compound 14]
Human GHS receptor 1a [1]
  % activation at 10 µM relative to ghrelin: 102%
  Functional Assay EC50 (aequorin bioluminescence): 38 nM
Human GHS receptor 1a [2]
  IC50: 8 nM

B2: compound 18 (peptide)
peptide: GSS(Octanoyl)FLSPEHQRVQQRKESKKPPA-NH2
modifications: N-terminus assumed
SMILES: CCCCCCCC(=O)OC[C@H](NC(=O)[C@H](CO)NC(=O)CN)C(=O)N[C@@H](Cc1ccccc1)C(=O)N[C@@H](CC(C)C)C(=O)N[C@@H](CO)C(=O)N1CCC[C@H]1C(=O)N[C@@H](CCC(=O)O)C(=O)N[C@@H](Cc1c[nH]cn1)C(=O)N[C@@H](CCC(N)=O)C(=O)N[C@@H](CCCNC(=N)N)C(=O)N[C@H](C(=O)N[C@@H](CCC(N)=O)C(=O)N[C@@H](CCC(N)=O)C(=O)N[C@@H](CCCNC(=N)N)C(=O)N[C@@H](CCCCN)C(=O)N[C@@H](CCC(=O)O)C(=O)N[C@@H](CO)C(=O)N[C@@H](CCCCN)C(=O)N[C@@H](CCCCN)C(=O)N1CCC[C@H]1C(=O)N1CCC[C@H]1C(=O)N[C@@H](C)C(N)=O)C(C)C
Human GHS receptor 1a [3]
  % activation at 10 µM relative to ghrelin: 100%
  Functional Assay EC50 (aequorin bioluminescence): 15 nM
Human GHS receptor 1a [4]
  IC50: 0.16 nM

B3: compound 19 (peptide)
peptide: GSS(Octanoyl)FLSPEHQRVQQRKES-NH2
modifications: N-terminus assumed
SMILES: CCCCCCCC(=O)OC[C@H](NC(=O)[C@H](CO)NC(=O)CN)C(=O)N[C@@H](Cc1ccccc1)C(=O)N[C@@H](CC(C)C)C(=O)N[C@@H](CO)C(=O)N1CCC[C@H]1C(=O)N[C@@H](CCC(=O)O)C(=O)N[C@@H](Cc1c[nH]cn1)C(=O)N[C@@H](CCC(N)=O)C(=O)N[C@@H](CCCNC(=N)N)C(=O)N[C@H](C(=O)N[C@@H](CCC(N)=O)C(=O)N[C@@H](CCC(N)=O)C(=O)N[C@@H](CCCNC(=N)N)C(=O)N[C@@H](CCCCN)C(=O)N[C@@H](CCC(=O)O)C(=O)N[C@@H](CO)C(N)=O)C(C)C
Human GHS receptor 1a [3]
  % activation at 10 µM relative to ghrelin: 92%
  Functional Assay EC50 (aequorin bioluminescence): 22 nM
Human GHS receptor 1a [4]
  IC50: 0.77 nM

B4: compound 21 (peptide)
peptide: GSS(Octanoyl)FL-NH2
modifications: N-terminus assumed
SMILES: CCCCCCCC(=O)OC[C@H](NC(=O)[C@H](CO)NC(=O)CN)C(=O)N[C@@H](Cc1ccccc1)C(=O)N[C@@H](CC(C)C)C(N)=O
Human GHS receptor 1a [3]
  % activation at 10 µM relative to ghrelin: 96%
  Functional Assay EC50 (aequorin bioluminescence): 11.5 nM
Human GHS receptor 1a [4]
  IC50: 55 nM
